Each block holds one substance with its values, some of them ahead of it.
Experiments:
[1] = biological target: GnRH receptor (GnRHR or LHRHR) (UniProt P30968); assay: cell-based or functional assay
[2] = biological target: bradykinin receptor 2 (BDKRB2) (UniProt P30411); assay: cell-based or functional assay
[3] = biological target: melanocortin receptor 1 (MC1R) (UniProt Q01726); assay: cell-based or functional assay
[4] = biological target: melanocortin receptor 4 (MC4R) (UniProt P32245); assay: cell-based or functional assay
PTH receptor 1 (PTHR1) = PTH receptor 1 (PTHR1) (UniProt Q03431); assay: cell-based or functional assay
[5] = biological target: FITC-labled GnRH molecule (a peptide) (UniProt P01148); assay: Centricon filter release assay: FITC-GnRH that passed into the lower chamber with nongel-forming peptide at 1 mg/10 ml (control without carrier 72.50)
[6] = biological target: FITC-labled GnRH molecule (a peptide) (UniProt P01148); assay: Centricon filter release assay: FITC-GnRH that passed into the lower chamber with nongel-forming peptide at 1 mg/100 ml (control without carrier 72.50)
[7] = biological target: kappa opioid receptor (OPRK1) (UniProt P41145); assay: cell-based or functional assay
Chain of kappa opioid receptor (OPRK1) (P41145 whole entry): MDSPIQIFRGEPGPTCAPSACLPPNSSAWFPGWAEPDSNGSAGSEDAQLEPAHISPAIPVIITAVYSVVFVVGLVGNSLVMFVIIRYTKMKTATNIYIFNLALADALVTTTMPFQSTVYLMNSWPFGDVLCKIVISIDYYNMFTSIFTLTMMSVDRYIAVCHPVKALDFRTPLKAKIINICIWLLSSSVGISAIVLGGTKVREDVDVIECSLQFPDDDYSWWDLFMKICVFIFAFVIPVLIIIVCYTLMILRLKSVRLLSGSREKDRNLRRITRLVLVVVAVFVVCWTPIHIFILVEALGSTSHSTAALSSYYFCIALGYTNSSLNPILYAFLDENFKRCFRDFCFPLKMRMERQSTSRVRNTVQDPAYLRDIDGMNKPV

Chain of melanocortin receptor 4 (MC4R) (P32245 whole entry): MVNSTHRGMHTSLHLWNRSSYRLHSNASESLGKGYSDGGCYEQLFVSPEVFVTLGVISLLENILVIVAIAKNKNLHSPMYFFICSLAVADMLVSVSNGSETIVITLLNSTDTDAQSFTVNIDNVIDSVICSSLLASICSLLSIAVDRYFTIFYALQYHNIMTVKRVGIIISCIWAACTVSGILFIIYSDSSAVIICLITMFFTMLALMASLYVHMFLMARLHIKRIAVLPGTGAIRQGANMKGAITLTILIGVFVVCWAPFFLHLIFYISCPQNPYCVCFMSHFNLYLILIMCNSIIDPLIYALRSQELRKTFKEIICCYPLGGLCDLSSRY
Chain of bradykinin receptor 2 (BDKRB2) (P30411 whole entry): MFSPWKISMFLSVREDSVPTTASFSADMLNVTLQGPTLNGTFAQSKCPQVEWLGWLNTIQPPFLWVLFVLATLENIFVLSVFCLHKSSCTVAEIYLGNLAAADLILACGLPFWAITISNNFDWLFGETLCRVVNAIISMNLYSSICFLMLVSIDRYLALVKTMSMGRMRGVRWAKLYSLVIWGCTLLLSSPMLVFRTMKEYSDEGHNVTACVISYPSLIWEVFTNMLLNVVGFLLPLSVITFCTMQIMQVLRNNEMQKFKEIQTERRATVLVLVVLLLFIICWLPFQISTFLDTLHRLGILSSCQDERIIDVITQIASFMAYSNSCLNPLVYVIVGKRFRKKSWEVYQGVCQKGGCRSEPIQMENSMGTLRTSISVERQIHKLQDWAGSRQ
Chain of GnRH receptor (GnRHR or LHRHR) (P30968 whole entry): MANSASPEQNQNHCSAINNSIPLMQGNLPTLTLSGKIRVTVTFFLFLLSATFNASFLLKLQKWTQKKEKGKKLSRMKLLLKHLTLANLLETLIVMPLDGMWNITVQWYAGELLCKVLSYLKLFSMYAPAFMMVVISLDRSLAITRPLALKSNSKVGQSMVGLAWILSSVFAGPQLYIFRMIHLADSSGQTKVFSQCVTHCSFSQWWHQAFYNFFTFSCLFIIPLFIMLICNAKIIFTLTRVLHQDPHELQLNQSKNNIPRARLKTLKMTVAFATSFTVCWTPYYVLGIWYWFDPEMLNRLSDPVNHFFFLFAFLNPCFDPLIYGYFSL
Chain of melanocortin receptor 1 (MC1R) (Q01726 whole entry): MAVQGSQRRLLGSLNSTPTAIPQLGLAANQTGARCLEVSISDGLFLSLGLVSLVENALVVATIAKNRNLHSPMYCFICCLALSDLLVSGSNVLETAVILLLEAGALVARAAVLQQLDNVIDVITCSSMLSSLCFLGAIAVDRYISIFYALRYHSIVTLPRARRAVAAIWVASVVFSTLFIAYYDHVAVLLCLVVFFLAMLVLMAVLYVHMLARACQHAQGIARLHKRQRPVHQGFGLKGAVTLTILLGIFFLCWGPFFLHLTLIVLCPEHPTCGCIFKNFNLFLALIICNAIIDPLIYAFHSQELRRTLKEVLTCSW
Chain of PTH receptor 1 (PTHR1) (Q03431 27-593 limits assumed): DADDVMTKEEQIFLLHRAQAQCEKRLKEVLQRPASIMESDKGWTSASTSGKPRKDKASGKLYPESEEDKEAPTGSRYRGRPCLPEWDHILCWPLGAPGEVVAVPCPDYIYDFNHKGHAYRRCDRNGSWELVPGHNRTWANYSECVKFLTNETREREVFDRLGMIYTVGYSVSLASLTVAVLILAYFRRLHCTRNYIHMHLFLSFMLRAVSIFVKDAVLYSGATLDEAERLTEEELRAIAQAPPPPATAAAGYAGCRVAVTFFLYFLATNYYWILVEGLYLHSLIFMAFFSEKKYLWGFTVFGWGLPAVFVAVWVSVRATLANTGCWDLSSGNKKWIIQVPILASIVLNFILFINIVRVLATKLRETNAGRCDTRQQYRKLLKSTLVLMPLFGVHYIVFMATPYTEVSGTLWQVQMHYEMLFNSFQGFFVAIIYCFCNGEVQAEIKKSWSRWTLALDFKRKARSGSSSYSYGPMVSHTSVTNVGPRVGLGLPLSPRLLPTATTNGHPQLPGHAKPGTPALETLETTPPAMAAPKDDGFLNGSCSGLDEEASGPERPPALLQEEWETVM

IC50 (nM), GnRHR calcium flux antagonistic assay [1]: 0.08 nM | Max Activity % of positive control, GnRHR calcium flux antagonistic assay (% of positive control) [1]: 91.4
Substance: Cetrorelix (positive control) (peptide)

IC50 (nM), BDKRB2 arrestin antagonistic assay [2]: 132 nM | Max Activity % of positive control, BDKRB2 arrestin antagonistic assay (% of positive control) [2]: 100
Substance: HOE140 (a BKR2 antagonist), (D-Arg)-Arg-Pro-Hyp-Gly-Thi-Ser-(D-Tic)-Oic-Arg (peptide)

EC50 (nM), MC1R cAMP agonistic assay [3]: 0.56 nM | Max Activity % of positive control, MC1R cAMP agonistic assay (% of positive control) [3]: 102 | EC50 (nM), MC4R cAMP agonistic assay [4]: 2 nM | Max Activity % of positive control, MC4R cAMP agonistic assay (% of positive control) [4]: 101
Substance: Melanotan II peptide (positive control)

EC50 (nM), PTHR1 cAMP agonistic assay (PTH receptor 1 (PTHR1)): 0.8 nM | Max Activity % of positive control, PTHR1 cAMP agonistic assay (% of positive control) (PTH receptor 1 (PTHR1)): 101
Substance: PTH(1-34) peptide (positive control) (from UniProt P01270 32-65)

Fluorescent Reading (average of duplicates) [5]: 55.4 | Fluorescent Reading (average of duplicates) [6]: 71
Substance: SEQ ID NO:133, Pal-VGSNTY-NH2, nongel-forming peptide

IC50 (nM), GnRHR calcium flux antagonistic assay [1]: < 0.51 nM | Max Activity % of positive control, GnRHR calcium flux antagonistic assay (% of positive control) [1]: 109
Substance: SEQ ID NO: 203, Pal-HSY-(D-Nal)-(D-Cpa)-(D-Pal)-SY-(D-Cit)-LRP-(D-Ala)-NH2, gel-forming GnRHR antagonist analog (peptide)

EC50 (nM), OPRK1 cAMP agonistic assay [7]: 272 nM | Max Activity % of positive control, OPRK1 cAMP agonistic assay (% of positive control) [7]: 62
Substance: SEQ ID NO: 214, Pal-SSPHSY-miniPEG-(D-Phe)-(D-Phe)-Trp-(D-Arg), gel-forming kappa opioid receptor agonist (peptide)

EC50 (nM), MC1R cAMP agonistic assay [3]: < 0.05 nM | Max Activity % of positive control, MC1R cAMP agonistic assay (% of positive control) [3]: 120
Substance: SEQ ID NO: 224, Pal-HSYS-Nle-EH-(D-Phe)-RWGKPV-NH2, conjugated gel-forming Afamelanotide (melanotan I) analog (peptide)

EC50 (nM), MC4R cAMP agonistic assay [4]: 0.15 nM | Max Activity % of positive control, MC4R cAMP agonistic assay (% of positive control) [4]: 115
Substance: SEQ ID NO: 228, Pal-HSYRC-(D-Ala)-H-(D-Phe)-RWC-NH2, conjugated gel-forming setmelanotide analog (peptide)

IC50 (nM), BDKRB2 arrestin antagonistic assay [2]: 53.3 nM | Max Activity % of positive control, BDKRB2 arrestin antagonistic assay (% of positive control) [2]: 112
Substance: SEQ ID NO: 234, Pal-HSY-(D-Arg)-Arg-Pro-Hyp-Gly-Thi-Ser-(D-Tic)-Oic-Arg-NH2, conjugated bradykinin receptor antagonist (peptide)
